For test [1], the target named is dodecameric head completion protein, gp1 (Vibrio phage XM1). The experiment in a line: cryo-EM structure; purified XM1 virions in SM buffer; 6-fold-symmetric reconstruction of the portal and neck region and 12-fold-symmetric reconstruction of the portal, 3.6Å; interfaces analysed with PISA.
The target of test [2] is minor capsid protein (decoration protein, Dec), gp53 (Vibrio phage XM1). Briefly: cryo-EM structure; purified XM1 virions in SM buffer; icosahedrally averaged reconstruction of the capsid, 3.2Å.
The target in test [3] is tail terminator protein, gp5 (Vibrio phage XM1). The experiment in a line: cryo-EM structure; purified XM1 virions in SM buffer; 6-fold-symmetric reconstruction of the portal and neck region and 12-fold-symmetric reconstruction of the portal, 3.6Å; interfaces analysed with PISA.
In test [4] the target is tail tube protein, gp7 (Vibrio phage XM1). Briefly: cryo-EM structure; purified XM1 virions in SM buffer; 6-fold-symmetric reconstruction of the distal part of the extended tail (baseplate, part of tail tube and sheath), 3.2Å; interfaces analysed with PISA.
Test [5] concerns the target tail sheath protein, gp6 (Vibrio phage XM1). Briefly: cryo-EM structure; empty XM1 particles with contracted tail sheath (post-infection form); 6-fold-symmetric reconstruction, 9.1Å; models of the extended state fitted (Situs ddforge, Coot).
Test [6] shares this target. The experiment in a line: cryo-EM structure; purified XM1 virions in SM buffer; 6-fold-symmetric reconstruction of the distal part of the extended tail (baseplate, part of tail tube and sheath), 3.2Å; interfaces analysed with PISA.
Test [7] addresses collar spike protein, gp40 (Vibrio phage XM1). The experiment in a line: cryo-EM structure; purified XM1 virions in SM buffer; 6-fold-symmetric reconstruction of the portal and neck region and 12-fold-symmetric reconstruction of the portal, 3.6Å; interfaces analysed with PISA.
Test [8] deals with major capsid protein (MCP), gp54 (Vibrio phage XM1). Briefly: cryo-EM structure; purified XM1 virions in SM buffer; icosahedrally averaged reconstruction of the capsid, 3.2Å.
Test [9] concerns the target hexameric head completion protein, gp4 (Vibrio phage XM1). The experiment in a line: cryo-EM structure; purified XM1 virions in SM buffer; 6-fold-symmetric reconstruction of the portal and neck region and 12-fold-symmetric reconstruction of the portal, 3.6Å; interfaces analysed with PISA.
Test [10] addresses portal protein, gp49 (Vibrio phage XM1). The description is as above.
The target in test [11] is central baseplate organization protein, gp11 (Vibrio phage XM1). Briefly: cryo-EM structure; purified XM1 virions in SM buffer; 6-fold-symmetric reconstruction of the distal part of the extended tail (baseplate, part of tail tube and sheath), 3.2Å; interfaces analysed with PISA.

Where “and” joins values, the source holds several entries; their conditions need not be identical. Equal entries are not always repeated.

As to “dodecameric head completion protein, gp1 (natural protein)”, the stoichiometry N in test [1] is 12.
With “minor capsid protein (decoration protein, Dec), gp53 (natural protein)”, the stoichiometry N in [2] stood at 3.
Consider “tail terminator protein, gp5 (natural protein)”, for which, in test [3], the stoichiometry N was determined as 6.
As to “tail tube protein, gp7 (natural protein)”, the stoichiometry N in test [4] is 6.
“tail sheath protein, gp6 (natural protein)”: the stoichiometry N in test [5] and in [6] was 6 in each case.
“collar spike protein, gp40 (natural protein)” displayed a stoichiometry N in [7] of 3.
As for “major capsid protein (MCP), gp54 (natural protein)”, the stoichiometry N in [8] was 6 and 5.
As for “hexameric head completion protein, gp4 (natural protein)”, the stoichiometry N in [9] worked out at 6.
With portal protein, gp49 (natural protein), in test [10], the stoichiometry N was found to be 12.
“central baseplate organization protein, gp11 (natural protein)” had a stoichiometry N in test [11] of 6.

By stoichiometry N is commonly meant the number of molecules, sites or subunits per partner or assembly.
